Laboratory results as given in the supplement of paper PMC11780869.

Tested on: Bacillus subtilis
Test: cleaved RNA product abundance (RNA/gDNA barcode ratio) relative to median wild-type variant (ratio to wild type); higher = more accumulation of the downstream cleavage product
Settings: cleavage site: cggR-gapA (positions -7 to +36 mutated)
Procedure, shortened: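 B. subtilis strains with chromosomally integrated reporter mRNAs (truncated aprE or tetM) holding barcoded, mutagenized RNase Y cleavage-site windows grew in LB at 37°C from OD600 0.0003 to 0.3. Cleaved product abundance is each construct's RNA:gDNA barcode ratio, scaled to the median construct with the unmutated site. It came from sequencing barcodes of gel-selected, reverse-transcribed cleaved RNA and of genomic DNA.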

[1] = experiment (reporter, strain, medium): exp 4a: truncated aprE reporter, strain BJT201 with 2% xylose (RNase J1 expressed)
[2] = experiment (reporter, strain, medium): exp 6: tetM reporter, strain 168
[3] = experiment (reporter, strain, medium): exp 2b: truncated aprE reporter, strain BJT200

Sequence | cleaved RNA product abundance [1] | cleaved RNA product abundance [2] | cleaved RNA product abundance [3]
ACAGACGAAGGAGCCGCAAAGAAGTTATTAAGGTCTGAATAATCCCTCAATATAAATATCTCTCACTTATTTAAA | 0.0753 | 0.101 | –
ACAGACGAAGGAGCCGCAAAGAAGTTATTAAGGTTTGAATAATCCCTCAATATAAATATCTCTCACTTATTTAAA | 0.144 | – | 0.102
ACAGACGAAGGAGCCGCAAAGAAGTTATTAAGTAATAAATAATCCCTCAATATAAATATCTCTCACTTATTTAAA | 0.0519 | – | –
ACAGACGAAGGAGCCGCAAAGAAGTTATTAAGTAATGAATAACCCCTCAATATAAATATCTCTCACTTATTTAAA | 0.127 | – | 0.084
ACAGACGAAGGAGCCGCAAAGAAGTTATTAAGTAATGAATAATCCCTCAATATAAATATCTCTCACTTATTTAAA | 0.099 | – | 0.102
ACAGACGAAGGAGCCGCAAAGAAGTTATTAAGTCATGAATAATCCCTCAATATAAATATCTCTCACTTATTTAAA | 0.106 | – | 0.0957
ACAGACGAAGGAGCCGCAAAGAAGTTATTAAGTGAAGAATAATCCCTCAATATAAATATCTCTCACTTATTTAAA | 0.0841 | – | –
ACAGACGAAGGAGCCGCAAAGAAGTTATTAAGTGACGAATAATCCCTCAATATAAATATCTCTCACTTATTTAAA | 0.0518 | – | –
ACAGACGAAGGAGCCGCAAAGAAGTTATTAAGTGAGGAATAATCCCTCAATATAAATATCTCTCACTTATTTAAA | 0.16 | – | –
ACAGACGAAGGAGCCGCAAAGAAGTTATTAAGTGATAAATAATCCCTCAATATAAATATCTCTCACTTATTTAAA | 0.103 | 0.113 | –
ACAGACGAAGGAGCCGCAAAGAAGTTATTAAGTGATAAATAATTCCTCAATATAAATATCTCTCACTTATTTAAA | 0.0999 | – | –
ACAGACGAAGGAGCCGCAAAGAAGTTATTAAGTGATCAATAATCCCTCAATATAAATATCTCTCACTTATTTAAA | 0.137 | – | 0.0674
ACAGACGAAGGAGCCGCAAAGAAGTTATTAAGTGATGAAAAATCCCTCAATATAAATATCTCTCACTTATTTAAA | 0.0967 | – | 0.118
ACAGACGAAGGAGCCGCAAAGAAGTTATTAAGTGATGAACAATCCCTCAATATAAATATCTCTCACTTATTTAAA | 0.109 | – | –
ACAGACGAAGGAGCCGCAAAGAAGTTATTAAGTGATGAAGAATCCCTCAATATAAATATCTCTCACTTATTTAAA | 0.0723 | – | 0.0943
ACAGACGAAGGAGCCGCAAAGAAGTTATTAAGTGATGAATAAACCCTCAATATAAATATCTCTCACTTATTTAAA | 0.0945 | – | 0.113
ACAGACGAAGGAGCCGCAAAGAAGTTATTAAGTGATGAATAACCCCTCAATATAAATATCTCTCACTTATTTAAA | 0.109 | – | –
ACAGACGAAGGAGCCGCAAAGAAGTTATTAAGTGATGAATAATACCTCAATATAAATATCTCTCACTTATTTAAA | 0.0926 | – | 0.109
ACAGACGAAGGAGCCGCAAAGAAGTTATTAAGTGATGAATAATCACTCAATATAAATAACTCTCACTTATTTAAA | 1.16 | – | –

Sequence | cleaved RNA product abundance [1] | cleaved RNA product abundance [2] | cleaved RNA product abundance [3]
ACAGACGAAGGAGCCGCAAAGAAGTTATTAAGTGATGAATAATCACTCAATATAAATATCTCTCACTTATTTAAA | 1.13 | – | 0.81
ACAGACGAAGGAGCCGCAAAGAAGTTATTAAGTGATGAATAATCCATCAATATAAATATCTCTCACTTATTTAAA | 0.165 | – | 0.153
ACAGACGAAGGAGCCGCAAAGAAGTTATTAAGTGATGAATAATCCCACAATATAAATATCTCTCACTTATTTAAA | 0.0805 | – | 0.0986
ACAGACGAAGGAGCCGCAAAGAAGTTATTAAGTGATGAATAATCCCCCAATATAAATATCTCTCACTTATTTAAA | 0.127 | – | –
ACAGACGAAGGAGCCGCAAAGAAGTTATTAAGTGATGAATAATCCCTAAATATAAATATCTCTCACTTATTTAAA | 0.146 | – | 0.143
ACAGACGAAGGAGCCGCAAAGAAGTTATTAAGTGATGAATAATCCCTCAAAATAAATATCTCTCACTTATTTAAA | 0.124 | – | 0.102
ACAGACGAAGGAGCCGCAAAGAAGTTATTAAGTGATGAATAATCCCTCAACATAAATATCTCTCACTTATTTAAA | 0.0935 | – | –
ACAGACGAAGGAGCCGCAAAGAAGTTATTAAGTGATGAATAATCCCTCAATAAAAATATCTCTCACTTATTTAAA | 0.0655 | 0.11 | –
ACAGACGAAGGAGCCGCAAAGAAGTTATTAAGTGATGAATAATCCCTCAATACAAATATCTCTCACTTATTTAAA | 0.057 | – | 0.102
ACAGACGAAGGAGCCGCAAAGAAGTTATTAAGTGATGAATAATCCCTCAATAGAAATATCTCTCACTTATTTAAA | 0.0533 | – | –
ACAGACGAAGGAGCCGCAAAGAAGTTATTAAGTGATGAATAATCCCTCAATATAAAAATCTCTCACTTATTTAAA | 0.124 | – | –
ACAGACGAAGGAGCCGCAAAGAAGTTATTAAGTGATGAATAATCCCTCAATATAAACATCTCTCACTTATTTAAA | 0.116 | – | –
ACAGACGAAGGAGCCGCAAAGAAGTTATTAAGTGATGAATAATCCCTCAATATAAATAACTCTCACTTATTTAAA | 0.119 | – | –
ACAGACGAAGGAGCCGCAAAGAAGTTATTAAGTGATGAATAATCCCTCAATATAAATACCTCTCACTTATTTAAA | 0.105 | – | –
ACAGACGAAGGAGCCGCAAAGAAGTTATTAAGTGATGAATAATCCCTCAATATAAATATCTCTCACTTATTTAAA | 0.126 | 0.127 | 0.109
ACAGACGAAGGAGCCGCAAAGAAGTTATTAAGTGATGAATAATCCCTCAATATAAATCTCTCTCACTTATTTAAA | – | – | 0.116
ACAGACGAAGGAGCCGCAAAGAAGTTATTAAGTGATGAATAATCCCTCAATATAACTATCTCTCACTTATTTAAA | – | – | 0.146
ACAGACGAAGGAGCCGCAAAGAAGTTATTAAGTGATGAATAATCCCTCAATATAATTATCTCTCACTTATTTAAA | 0.0685 | – | –
ACAGACGAAGGAGCCGCAAAGAAGTTATTAAGTGATGAATAATCCCTCAATATACATATCTCTCACTTATTTAAA | 0.19 | – | 0.0962

Sequence | cleaved RNA product abundance [1] | cleaved RNA product abundance [2] | cleaved RNA product abundance [3]
ACAGACGAAGGAGCCGCAAAGAAGTTATTAAGTGATGAATAATCCCTCAATATATATATCTCTCACTTATTTAAA | 0.107 | – | 0.115
ACAGACGAAGGAGCCGCAAAGAAGTTATTAAGTGATGAATAATCCCTCAATCTAAATATCTCTCACTTATTTAAA | 0.0609 | – | –
ACAGACGAAGGAGCCGCAAAGAAGTTATTAAGTGATGAATAATCCCTCAATTTAAATATCTCTCACTTATTTAAA | 0.0598 | – | 0.0957
ACAGACGAAGGAGCCGCAAAGAAGTTATTAAGTGATGAATAATCCCTCATTATAAATATCTCTCACTTATTTAAA | 0.151 | – | 0.0978
ACAGACGAAGGAGCCGCAAAGAAGTTATTAAGTGATGAATAATCCCTCCATATAAATATCTCTCACTTATTTAAA | 0.104 | – | –
ACAGACGAAGGAGCCGCAAAGAAGTTATTAAGTGATGAATAATCCCTCTATATAAATATCTCTCACTTATTTAAA | 0.128 | – | 0.109
ACAGACGAAGGAGCCGCAAAGAAGTTATTAAGTGATGAATAATCCCTGAATATAAATATCTCTCACTTATTTAAA | 0.0547 | – | 0.0871
ACAGACGAAGGAGCCGCAAAGAAGTTATTAAGTGATGAATAATCCCTTAATATAAATATCTCTCACTTATTTAAA | 0.388 | – | 0.6
ACAGACGAAGGAGCCGCAAAGAAGTTATTAAGTGATGAATAATCCGTCAATATAAATATCTCTCACTTATTTAAA | 0.0842 | – | 0.103
ACAGACGAAGGAGCCGCAAAGAAGTTATTAAGTGATGAATAATCCTTCAATATAAATATCTCTCACTTATTTAAA | 0.145 | – | 0.112
ACAGACGAAGGAGCCGCAAAGAAGTTATTAAGTGATGAATAATCGCTCAATATAAATATCTCTCACTTATTTAAA | – | – | 0.522
ACAGACGAAGGAGCCGCAAAGAAGTTATTAAGTGATGAATAATCTCTCAATATAAATATCTCTCACTTATTTAAA | 0.172 | – | 0.113
ACAGACGAAGGAGCCGCAAAGAAGTTATTAAGTGATGAATAATGCCTCAATATAAATATCTCTCACTTATTTAAA | – | – | 0.1
ACAGACGAAGGAGCCGCAAAGAAGTTATTAAGTGATGAATAATTCCTCAATATAAATATCTCTCACTTATTTAAA | 0.14 | – | 0.0685
ACAGACGAAGGAGCCGCAAAGAAGTTATTAAGTGATGAATACTCCCTCAATATAAATATCTCTCACTTATTTAAA | 0.181 | – | –
ACAGACGAAGGAGCCGCAAAGAAGTTATTAAGTGATGAATAGTCCCTCAATATAAATATCTCTCACTTATTTAAA | 0.14 | – | –
ACAGACGAAGGAGCCGCAAAGAAGTTATTAAGTGATGAATATTCCCTAAATATAAATATCTCTCACTTATTTAAA | – | – | 0.115
ACAGACGAAGGAGCCGCAAAGAAGTTATTAAGTGATGAATATTCCCTCAATATAAATATCTCTCACTTATTTAAA | 0.102 | – | –
ACAGACGAAGGAGCCGCAAAGAAGTTATTAAGTGATGAATCATCCCTCAATATAAATATCTCTCACTTATTTAAA | 0.147 | – | 0.125
